Among the data in patent US10647739B2, “Flavonoids O-A-glucosylated on the B cycle, method for the production thereof and uses” (Institut National de la Recherche Agronomique, priority 2014, dated 2020) are apigenin glucosylation efficiency and naringenin glucosylation efficiency values, retold here.

Residue numbers refer to the chain shown, from its start. In names and notes the source's numbering stands.

To fix the notation:
B1: V331T: ASNp amylosucrase single mutant (protein, UniProt Q9ZEU2 1-636, looked up, variant V331T)
Amylosucrase: MLTPTQQVGLILQYLKTRILDIYTPEQRAGIEKSEDWRQFSRRMDTHFPKLMNELDSVYGNNEALLPMLEMLLAQAWQSYSQRNSSLKDIDIARENNPDWILSNKQVGGVCYVDLFAGDLKGLKDKIPYFQELGLTYLHLMPLFKCPEGKSDGGYAVSSYRDVNPALGTIGDLREVIAALHEAGISAVVDFIFNHTSNEHEWAQRCAAGDPLFDNFYYIFPDRRMPDQYDRTLREIFPDQHPGGFSQLEDGRWVWTTFNSFQWDLNYSNPWVFRAMAGEMLFLANLGVDILRMDAVAFIWKQMGTSCENLPQAHALIRAFNAVMRIAAPATFFKSEAIVHPDQVVQYIGQDECQIGYNPLQMALLWNTLATREVNLLHQALTYRHNLPEHTAWVNYVRSHDDIGWTFADEDAAYLGISGYDHRQFLNRFFVNRFDGSFARGVPFQYNPSTGDCRVSGTAAALVGLAQDDPHAVDRIKLLYSIALSTGGLPLIYLGDEVGTLNDDDWSQDSNKSDDSRWAHRPRYNEALYAQRNDPSTAAGQIYQGLRHMIAVRQSNPRFDGGRLVTFNTNNKHIIGYIRNNALLAFGNFSEYPQTVTAHTLQAMPFKAHDLIGGKTVSLNQDLTLQPYQVMWLEIA
B2: V331K: ASNp amylosucrase single mutant (protein, UniProt Q9ZEU2 1-636, looked up, variant V331K)
Amylosucrase: B1 Amylosucrase with T331K
B3: V331D: ASNp amylosucrase single mutant (protein, UniProt Q9ZEU2 1-636, looked up, variant V331D)
Amylosucrase: B1 Amylosucrase with T331D
B4: V331E: ASNp amylosucrase single mutant (protein, UniProt Q9ZEU2 1-636, looked up, variant V331E)
Amylosucrase: B1 Amylosucrase with T331E
B5: V331W: ASNp amylosucrase single mutant (protein, UniProt Q9ZEU2 1-636, looked up, variant V331W)
Amylosucrase: B1 Amylosucrase with T331W
B6: V331H: ASNp amylosucrase single mutant (protein, UniProt Q9ZEU2 1-636, looked up, variant V331H)
Amylosucrase: B1 Amylosucrase with T331H
B7: V331I: ASNp amylosucrase single mutant (protein, UniProt Q9ZEU2 1-636, looked up, variant V331I)
Amylosucrase: B1 Amylosucrase with T331I
B8: V331C: ASNp amylosucrase single mutant (protein, UniProt Q9ZEU2 1-636, looked up, variant V331C)
Amylosucrase: B1 Amylosucrase with T331C
B9: V331G: ASNp amylosucrase single mutant (protein, UniProt Q9ZEU2 1-636, looked up, variant V331G)
Amylosucrase: B1 Amylosucrase with T331G
B10: V331Y: ASNp amylosucrase single mutant (protein, UniProt Q9ZEU2 1-636, looked up, variant V331Y)
Amylosucrase: B1 Amylosucrase with T331Y
B11: V331F: ASNp amylosucrase single mutant (protein, UniProt Q9ZEU2 1-636, looked up, variant V331F)
Amylosucrase: B1 Amylosucrase with T331F
B12: R446Q: ASNp amylosucrase single mutant, SEQ ID NO: 8 (protein, listed as Neisseria polysaccharea)
chain: SPNSQYLKTRILDIYTPEQRAGIEKSEDWRQFSRRMDTHFPKLMNELDSVYGNNEALLPMLEMLLAQAWQSYSQRNSSLKDIDIARENNPDWILSNKQVGGVCYVDLFAGDLKGLKDKIPYFQELGLTYLHLMPLFKCPEGKSDGGYAVSSYRDVNPALGTIGDLREVIAALHEAGISAVVDFIFNHTSNEHEWAQRCAAGDPLFDNFYYIFPDRRMPDQYDRTLREIFPDQHPGGFSQLEDGRWVWTTFNSFQWDLNYSNPWVFRAMAGEMLFLANLGVDILRMDAVAFIWKQMGTSCENLPQAHALIRAFNAVMRIAAPAVFFKSEAIVHPDQVVQYIGQDECQIGYNPLQMALLWNTLATREVNLLHQALTYRHNLPEHTAWVNYVRSHDDIGWTFADEDAAYLGISGYDHRQFLNRFFVNRFDGSFARGVPFQYNPSTGDCQVSGTAAALVGLAQDDPHAVDRIKLLYSIALSTGGLPLIYLGDEVGTLNDDDWSQDSNKSDDSRWAHRPRYNEALYAQRNDPSTAAGQIYQDLRHMIAVRQSNPRFDGGRLVTFNTNNKHIIGYIRNNALLAFGNFSEYPQTVTAHTLQAMPFKAHDLIGGKTVSLNQDLTLQPYQVMWLEIA

The first assay can be described thus: apigenin glucosylation acceptor reaction with recombinant glucansucrases (microplate screening). It counts as biochemical. As to conditions: sucrose 146 mM, apigenin 2.5 mM, 3% DMSO, 30° C., 24 h; HPLC-UV 340 nm peak areas. Here is the method: (§1) The enzymatic extracts obtained are used to carry out the flavonoid glucosylation enzymatic screening reactions. The enzymatic activity of each centrifuged cell lysate is evaluated in the microplate format, by final weight after 30 minutes incubation in the presence of a final concentration of 146 mM of sucrose, by assaying the reducing sugars with 3,5-dinitrosalicylic acid (DNS). Finally, after dilution in ultrapure water, the absorbance is read at 540 nm.
(§2) The flavonoid acceptor reactions are then carried out in deep-well microplates, in a volume of 300 μl, at final concentrations of sucrose of 146 mM and of flavonoid of 2.5 mM (apigenin) or 5 mM (naringenin) (initially dissolved in 100% DMSO), and 140 μl of centrifuged cell lysate.
(§3) The final DMSO concentration in the reaction medium is 3% (v/v).
(§4) The incubation is carried out at 30° C. and at 700 rpm. After 24 hours, the enzymes are denatured at 95° C. for 15 minutes. These microplates are stored at −80° C. with a view to rapid evaluation of the flavonoid glucosylation by liquid-phase chromatography coupled to mass spectrometry (HPLC-MS or LC-MS).
(§5) With a view to their analyses by HPLC-MS, the extensively homogenized reaction media are diluted to 1/30th in DMSO. The separation of the flavonoids and of their glucosylated forms is carried out in reverse phase with a ProntoSlL Eurobond® 53×3.0 mm 120-3-C18-AQ column (porosity of 120 Å, particle size of 3 μm, C18 grafting, Bischoff Chromatography, Germany).
(§6) The flavonoid glucosylation efficiency was determined from the following formula: Glucosylation efficiency=(Σ(area of the peak of glucosylated flavonoid(s)))/(Σ(area of the peak of glucosylated flavonoid(s))+area of the peak of residual aglycone flavonoid)×100
The flavonoid glucosylation efficiencies, expressed as a percentage, were calculated from the areas of the peaks of the various products analyzed, as described in example 1, by HPLC with a UV detector (340 nm) after 24 h of reaction.
Take B1: the apigenin glucosylation efficiency came to 0.0%.
Still for that read-out and setting: in the case of B2 it was 0.2%.
On the same count and under the same terms, in the case of B3 it was 0.9%; in that of B4, 0.7%; in that of B5, 0.2%.
Still for that read-out and setting: in the case of B6 it was 0.1%.
As for B7, the apigenin glucosylation efficiency was 0.3%.
The same measure, in the same setting: then B8, with 1.2%.
On to B9, for which the apigenin glucosylation efficiency was found to be 1.9%.
The same measure, in the same setting: in the case of B10 it was 0.4%.
Same read-out and setting: then B11, with 0.4%.
Turning to B12, the apigenin glucosylation efficiency came out at 1.9%.

A short description of a further assay: naringenin glucosylation acceptor reaction with recombinant glucansucrases (microplate screening). It counts as biochemical. As to conditions: sucrose 146 mM, naringenin 5 mM, 3% DMSO, 30° C., 24 h; HPLC-UV 340 nm peak areas. On the procedure:
as §1, §2, §3, §4, §5, §6
The flavonoid glucosylation efficiency was determined from the formula set out in example 2. The flavonoid glucosylation efficiencies, expressed as a percentage, were calculated from the areas of the peaks of the various products analyzed, as described in example 1, by HPLC with a UV detector (λ340 nm), after 24 h of reaction.
With B1, the naringenin glucosylation efficiency is recorded as 7.2%.
For the molecule B2, the naringenin glucosylation efficiency amounted to 0.0%.
Turning to B3, the naringenin glucosylation efficiency is 0.0%.
Same read-out and setting: then B4, with 0.0%; and B5, with 0.0%; and B6, with 0.0%.
Same read-out and setting: in the case of B7 it was 0.0%; in that of B8, 5.4%.
Same read-out and setting: in the case of B9 it was 6.9%; in that of B10, 3.8%; in that of B11, 0.0%.
On to B12, for which the naringenin glucosylation efficiency is given as 0.0%.
